Positions count from the first letter of the chain named.

The source of these data is patent publication US20100196375A1.

The target in the test is BHV-1 virus (Cooper strain). Put plainly: cell-based or functional assay.

B1: recombinant scFv1-7L (scFv)
scFv: QAVLTQPSSVSGSLGQRVSITCSGSSSNIGRYGVGWYQQVPGSGLRRIIYGSVSRPSGVPVRFSGSKSGDTATLTISSLQAEDEADYFCATADYTSSPVLFGSGTTLTVLGQSSRSSQVQLRESGPSLVKPSQTLSLTCTVSGFSLSGNSVGWVRQTPGKALEWLGNMDGIGTTDYNPALKSRLSITKDNSKSQVSLSLSSVTTEDTATYYCAKCTGAYCWRFDDAYGYDDWGQGLLVTVSS
For B1, the 50% viral neutralization end point came to 3 µg/mL; the Percent plaque reduction at 24 µg/ml, Experiment I turned out to be 86.3%; the Percent plaque reduction at 24 µg/ml, Experiment II amounted to 84.8%; the Percent plaque reduction at 72 µg/ml, Experiment I came out at 95.9%. Also, the Percent plaque reduction at 72 µg/ml, Experiment II amounted to 94.2%; the Percent plaque reduction at 216 µg/ml, Experiment I worked out at 100%; the Percent plaque reduction at 216 µg/ml, Experiment II amounted to 100%.

B2: recombinant scFv3-18L (scFv)
scFv: QAVLTQPSSVSGSLGQRVSITCSGSSSNIGRYGVGWYQQVPGSGLRRIIYGSVSRPSGVPVRFSGSKSGDTATLTISSLQAEDEADYFCATADYTSSPVLFGSGTTLTVLGQSSRSSSGGGSSGGGGSQVQLRESGPSLVKPSQTLSLTCTVSGFSLSGNSVGWVRQTPGKALEWLGNMDGIGTTDYNPALKSRLSITKDNSKSQVSLSLSSVTTEDTATYYCAKCTGAYCWRFDDAYGYDDWGQGLLVTVSS
For B2, the 50% viral neutralization end point was 5.5 µg/mL; the Percent Plaque reduction at 11 µg/ml, Experiment I came to 78.7%; the Percent Plaque reduction at 11 µg/ml, Experiment II was 80%; the Percent Plaque reduction at 33 µg/ml, Experiment I was 89.3%. This molecule showed a Percent Plaque reduction at 33 µg/ml, Experiment II of 90.5%; a Percent Plaque reduction at 99 µg/ml, Experiment I of 93.4%; a Percent Plaque reduction at 99 µg/ml, Experiment II of 94.7%.

B3: recombinant scFv4m-18L (scFv)
scFv: B2 scFv with S118G, D217G
B3: the 50% viral neutralization end point is 15 µg/mL; the Percent Plaque reduction at 15 µg/ml, Experiment I was found to be 55.8%; the Percent Plaque reduction at 15 µg/ml, Experiment II is 48.5%; the Percent Plaque reduction at 45 µg/ml, Experiment I worked out at 67%. The molecule further registered a Percent Plaque reduction at 45 µg/ml, Experiment II of 70%; a Percent Plaque reduction at 135 µg/ml, Experiment I of 92.4%; a Percent Plaque reduction at 135 µg/ml, Experiment II of 92.6%; a fold higher protein concentration required for virus neutralization, compared with wild type scFv with either 7 or 18 amino acid linker of 2.7 to 5 fold.
